US20100003258A1 (AVEO PHARMACEUTICALS, published 2010)

Tests used:
[1] = molecular target: T1, recombinant human FGFR3 IIIc Fc fusion protein (human, UniProt P22607 23-375); assay: SPR (Biacore T100), antibody captured on anti-mouse Ig, rhFGFR3 IIIc Fc as analyte, 25 C
T1 construct: Bought reagent; also called rhFGFR3 IIIc Fc; not shown: Fc fragment (removable by Factor Xa)
T1 sequence (looked up): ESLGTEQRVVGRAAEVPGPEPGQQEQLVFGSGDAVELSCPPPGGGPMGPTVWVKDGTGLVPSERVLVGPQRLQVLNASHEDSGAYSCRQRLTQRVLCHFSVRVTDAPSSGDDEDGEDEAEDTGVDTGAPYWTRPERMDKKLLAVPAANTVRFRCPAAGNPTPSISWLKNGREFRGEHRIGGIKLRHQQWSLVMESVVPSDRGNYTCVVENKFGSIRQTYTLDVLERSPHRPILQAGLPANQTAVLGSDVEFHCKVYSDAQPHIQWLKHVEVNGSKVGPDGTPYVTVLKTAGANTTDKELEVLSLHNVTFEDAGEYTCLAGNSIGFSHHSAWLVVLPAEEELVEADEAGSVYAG
Description: The binding affinities and kinetics of interaction of the monoclonal antibodies (15D8, 27H2, 2G4, and 4E7(7D12)) produced in Example 1 against recombinant human FGFR3 (IIIb and IIIc isoforms) Fc fusion protein (rhFGFR3 IIIb Fc or rhFGFR3 IIIc Fc) were measured by surface plasmon resonance using a Biacore™ T100 (Biacore) instrument.
Rabbit anti-mouse immunoglobulins (Biacore, Catalog No. BR-1005-14) were immobilized on carboxymethylated dextran CM4 sensor chips (Biacore, Catalog No. BR-1005-34) by amine coupling (Biacore, Catalog No. BR-1000-50) using a standard coupling protocol according to manufacturer's instructions.
The antibodies were captured in an individual flow cell at a flow rate of 10 μl/min. Injection time was varied for each antibody to yield approximately 40-50 RU of antibody captured for each cycle. Buffer or rhFGFR3 IIIb Fc (R&D Systems, Catalog No. 1264-FR-050) or rhFGFR3 IIIc Fc (R&D Systems, Catalog No. 766-FR-050) diluted in running buffer was injected sequentially over a reference surface (no antibody captured) and the active surface (antibody to be tested) for 300 sec at 60 μl/min. The dissociation phase was monitored for 30 minutes. The surface was then regenerated with two 60-seconds injection of 10 mM Glycine-HCl, pH 1.7 (made from Glycine pH 1.5 (Biacore, Catalog No. BR-1003-54) and pH 2.0 (Biacore, Catalog No. BR-1003-55)) at a flow rate of 60 μl/min. rhFGFR3 Fc concentrations tested were 0.62 nM to 40 nM.

[2] = molecular target: T2, recombinant human FGFR3 IIIb Fc fusion protein (human, UniProt P22607-2 23-377, limits assumed); assay: ECL competition assay: inhibition of rhFGFR3 IIIb Fc binding to coated FGF1 (competitor FGF1); 15D8 IgG1, not Fab; average of n = 3
T2 construct: Bought reagent; the IIIb splice isoform is meant; also called rhFGFR3 IIIb Fc; hFGFR3 IIIb; not shown: Fc fragment (removable by Factor Xa, detected with anti-human IgG)
T2 sequence (looked up): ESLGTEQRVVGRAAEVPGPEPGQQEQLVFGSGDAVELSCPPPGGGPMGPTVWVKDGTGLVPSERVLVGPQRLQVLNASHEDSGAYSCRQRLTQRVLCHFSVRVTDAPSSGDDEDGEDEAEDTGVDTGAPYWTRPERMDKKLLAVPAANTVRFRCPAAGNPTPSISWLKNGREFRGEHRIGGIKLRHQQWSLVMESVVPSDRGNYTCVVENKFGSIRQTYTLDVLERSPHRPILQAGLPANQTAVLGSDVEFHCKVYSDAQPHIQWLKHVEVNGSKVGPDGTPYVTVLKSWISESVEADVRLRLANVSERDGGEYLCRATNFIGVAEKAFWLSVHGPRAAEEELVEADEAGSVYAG
Description: The antibodies were tested by ECL (Electrochemiluminescence) assay for inhibition of hFGFR3 IIIB binding to FGF-1. […] The plates then were washed 3 times with PBS and blocked with 200 μl of PBS containing 5% BSA (Sera Care Life Sciences, Catalog No. AP-4510-80) and 5 μg/mL heparin (Sigma, Catalog No. H4784) for 1 hour at room temperature. The antibodies (concentration range: 0.029-30 μg/mL) were incubated for 1 hour at room temperature with 1.7 μg/mL rhFGFR3 IIIb Fc (R&D Systems, Catalog No. 1264-FR-050) and 5 μg/mL heparin. After washing the plates 3 times with PBS, 25 μl of the antibody-receptor mixture was added to the plates for another hour at room temperature with agitation. The plates were washed three times with PBS and incubated with 25 μl of 1 μg/mL ST-anti-human IgG antibody (Meso Scale Discovery, Catalog No. R32AJ-1) for 1 hour at room temperature with agitation. The plates then were washed 3 times with PBS, and 150 μl of 1× read buffer (Meso Scale Discovery, Catalog No. R92TC-1) was added to each well before the plates were analyzed on a Sector Imager 2400 (Meso Scale Discovery) instrument.

Kd [1]: 2.2 nM
koff [1]: 0.0002 s⁻¹
kon [1]: 93000 M⁻¹ s⁻¹
IC50 [2]: 15.4 nM
B1: anti-FGFR3 monoclonal antibody 15D8 (antibody, mouse IgG1, kappa)
heavy: EIQLQQSGPELVKPGASVKVSCKASGYAFTSYNMYWVKQSHGKSLEWIGYIDPYNGGTSYNQKFKGKATLTVDKSSSTAYMHLNSLTSEDSAVYYCAREGGNYEAWFAYWGQGTLVTVSAAKTTPPSVYPLAPGSAAQTNSMVTLGCLVKGYFPEPVTVTWNSGSLSSGVHTFPAVLQSDLYTLSSSVTVPSSTWPSETVTCNVAHPASSTKVDKKIVPRDCGCKPCICTVPEVSSVFIFPPKPKDVLTITLTPKVTCVVVDISKDDPEVQFSWFVDDVEVHTAQTQPREEQFNSTFRSVSELPIMHQDWLNGKEFKCRVNSAAFPAPIEKTISKTKGRPKAPQVYTIPPPKEQMAKDKVSLTCMITDFFPEDITVEWQWNGQPAENYKNTQPIMDTDGSYFVYSKLNVQKSNWEAGNTFTCSVLHEGLHNHHTEKSLSHSPGK
light: QIVLTQSPALMSASPGEKVTMTCSASSSVSYMYWYQQKPRSSPKPWIYLTSYLASGVPARFSGSGSGTSYSLTISSMEAEDAATYYCQQWSSYPLTFGAGTKLELKRADAAPTVSIFPPSSEQLTSGGASVVCFLNNFYPKDINVKWKIDGSERQNGVLNSWTDQDSKDSTYSMSSTLTLTKDEYERHNSYTCEATHKTSTSPIVKSFNRNEC
notes: also called 15D8 IgG1; murine antibody 15D8
